Results: patent US20230357405A1 (published 2023)

B1: Humabody® 1.80 (VHH)
VHH: EVQLVESGGGLVKPGGSLRLSCAASGFTFSDSSMTWMRQAPGKGLEWVSYISSGGGVKFYADSVKGRFTISRDNAKNSLYLQMNSLRAEDTAVYYCAREAPLRLGESPHDAFDISGQGTMVTVSS
notes: human VH single domain antibody
B2: Humabody® 1.1 (VHH)
VHH: QVQLVESGGGLVKPGGSLRLSCAASGFTFSDYTMTWMRQAPGKGLEWVSYISTGGTIKYYTDSVKGRFTISRDNAKNSLYLQMNSLRADDTAVYYCAREAPLRLGESPHDAFDIWGQGTMVTVSS
notes: human VH single domain antibody; also called clone 1.1
B3: Humabody® 1.57 (VHH)
VHH: QVQLVESGGGLVKPGGSLRLSCAASGFTFSDNSMTWMRQAPGKGLEWVSYISSGGGVIFYADSVKGRFTISRDNAKNSLYLQMNSLRADDTAVYYCAREAPLRLGESPHDAFDISGQGTMVTVSS
notes: as for B1
B4: Humabody® 1.92 (VHH)
VHH: EVQLVESGGGLVKPGGSLRLSCAASGFTFSDESMTWMRQAPGKGLEWVSYISSGGGVKFYADSVKGRFTISRDNAKNSLYLQMNSLRAEDTAVYYCAREAPLRLGESPHDAFDISGQGTMVTVSS
notes: as for B1

Assays:
[1] = molecular target: T1, Strep tagged recombinant human PD-1 (human, UniProt Q15116 25-167, limits assumed); experiment: SPR Biacore T200, single cycle kinetics; Strep tagged PD-1 amine coupled to CM-5 (14 RU)
T1 construct: also called Strep tagged human PD-1; not shown: Strep tag
T1 sequence (Q15116 25-167 limits assumed): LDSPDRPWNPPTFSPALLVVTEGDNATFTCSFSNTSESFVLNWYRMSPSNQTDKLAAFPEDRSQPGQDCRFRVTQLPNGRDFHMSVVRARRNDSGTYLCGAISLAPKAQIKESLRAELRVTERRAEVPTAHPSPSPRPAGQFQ
Procedure: Single cycle kinetics assays were used to study the interaction between human PD-1 with Humabody® on a Biacore T200 instrument (GE Healthcare). Strep tagged recombinant human PD-1 was amine coupled to one flow cell of a CM-5 chip to create a low density surface (14 RU) using standard Biacore reagents. For the reference flow cell, a blank immobilisation was carried out. A five-point, three-fold dilution series of each Humabody® was made with a top concentration of 25 nM. The binding kinetics were followed by flowing the Humabody® over the chip surface in HBS EP+ buffer at a flow rate of 30 μl/min. The contact time for each of the association steps was 180 seconds and the dissociation step was 3300 seconds. The data was fitted to a 1:1 binding model after double reference subtraction using the Biacore T200 Evaluation software.

[2] = molecular target: T2, cynomolgus PD-1 recombinant protein (cynomolgus); experiment: HTRF binding assay; 2 nM PD-1, anti human-Fc cryptate and anti His-D2
T2 construct: also called cyno PD-1; cynomolgus PD-1 (Acro Biosystems cat no. PD-1-05254)
Procedure: Purified VH were tested for their ability to bind to human PD-1 (R&D Systems cat no. 1086-PD), cynomolgus PD-1 (Acro Biosystems cat no. PD-1-05254) and mouse PD-1 (R&D Systems cat no. 1021-PD) in an HTRF Binding assay format. All reagents and serially diluted VH were prepared in assay buffer containing PBS, 0.1% BSA and 0.4M Potassium Fluoride. Samples or assay buffer (non-specific binding) were incubated with 2 nM human/cynomolgus or mouse PD-1, 1 nM Anti human-Fc Cryptate PAb (Cisbio cat. no. 61HFCKLB) and 30 nM anti His-D2 (CisBio cat no 61HISDLA) in black 384-shallow well assay plates for a minimum of 3 hours at room temperature. Time-resolved fluorescent emission at 620 nm and 665 nm was measured following excitation at 337 nm on the BMG PHERAstar plate reader. The HTRF ratio were calculated ((665 nm emission/620 nm emission)*10000) and the data corrected for (non-specific binding) to give the specific binding signal.

Row | Binder | kon [1] [M⁻¹ s⁻¹] | EC50 [2] [nM]
1 | B1 | 176000 | –
2 | B2 | – | 6.3
3 | B3 | – | 0.75
4 | B4 | – | 4.1
